The results in this text go back to PMC2140025.

This test has as its target F-actin (rat (endogenous in MTLn3)) (UniProt P60711). Description: FLIP.

The substance “GFP-cofilin (from UniProt P45592 1-166) (natural protein)” registered a tau of the slow FLIP component (assigned to F-actin-bound cofilin) of 26 s.
